In this assay the test system is CT26 tumors. Nature of the assay: Treatment of small (about 5 mm) established CT26 tumors in mice. The class given is in vivo, Balb/c mice. As to the method:
Balb/c mice were inoculated subcutaneously with 100,000 or 200,000 CT26 cells on day 1. […] On days 8, 12, 15 and 19 mice were administered PBS or 1 μg, 10 μg or 50 μg of rHMGN1. Tumor growth was monitored and plotted.
Small CT26 tumors were treated by a combination of one intraperitoneal (i.p.) injection of a suboptimal dose of cyclophosphamide or Cytoxan to reduce regulatory T cells (Treg), a key suppressor cell type in tumors, and four intratumoral (i.t.) administrations of HMGN1 within two weeks. Balb/c mice were subcutaneously inoculated with 100,000 or 200,000 CT26 cells on day 1. When the tumor size reached about 5 mm in diameter (by 4-6 days after tumor inoculation), mice were administered one dose of cyclophosphamide (100 mg/kg, i,p.) and/or HMGN1 protein (10 μg, intratumorally), twice a week for 2 weeks. PBS was administered i.t. or i.p. Tumor growth was monitored and plotted.

This note sets out measurements from patent publication US11266746B2, “Therapeutic antitumor combination of a TLR4 ligand with other treatments” (THE UNITED STATES OF AMERICA, as represented by the …, priority 2016, dated 2022).

“Also recorded” adds a separate entry of the source.

B1: High Mobility Group Nucleosome-binding protein 1 (protein, UniProt P05114 1-100, looked up)
Non-histone chromosomal …: MPKRKVSSAEGAAKEEPKRRSARLSAKPPAKVEAKPKKAAAKDKSSDKKVQTKGKRGAKGKQAEVANQETKEDLPAENGETKTEESPASDEAGEKEAKSD
notes: TLR4 ligand
B1: the tumor growth result (small (about 5 mm) CT26 tumors, intratumoral rHMGN1 1, 10 or 50 μg on days 8, 12, 15 and 19) is “slowed down tumor growth, but did not completely eradicate tumors; also recorded: inhibited tumor growth in a dose dependent manner”. Besides, where the note is “small CT26 tumors, intratumoral rHMGN1”, the percent survival result is reported as “improvement in percent survival”.
